Reference: article PMC3897949, “Dimeric structure of p300/CBP associated factor” (BMC Structural Biology, 2014)

B1: PCAF HAT domain (amino acids 493-658) L512A/M513A/V516A (domain or fragment, human, UniProt Q92831 493-658, looked up)
chain: VIEFHVVGNSLNQKPNKKIAAWLAGLQNVFSHQLPRMPKEYITRLVFDPKHKTLALIKDGRVIGGICFRMFPSQGFTEIVFCAVTSNEQVKGYGTHLMNHLKEYHIKHDILNFLTYADEYAIGYFKKQGFSKEIKIPKTKYVGYIKDYEGATLMGCELNPRIPYTE
notes: p300/CBP associated factor (PCAF, KAT2B), human, HAT domain, residues 493-658; also called LMV512AAA
B2: PCAF HAT domain (amino acids 493-658) F539A (domain or fragment, human, UniProt Q92831 493-658, looked up)
chain: VIEFHVVGNSLNQKPNKKILMWLVGLQNVFSHQLPRMPKEYITRLVADPKHKTLALIKDGRVIGGICFRMFPSQGFTEIVFCAVTSNEQVKGYGTHLMNHLKEYHIKHDILNFLTYADEYAIGYFKKQGFSKEIKIPKTKYVGYIKDYEGATLMGCELNPRIPYTE
notes: p300/CBP associated factor (PCAF, KAT2B), human, HAT domain, residues 493-658
B3: PCAF HAT domain (amino acids 493-658) L512D/V516D (domain or fragment, human, UniProt Q92831 493-658, looked up)
chain: VIEFHVVGNSLNQKPNKKIDMWLDGLQNVFSHQLPRMPKEYITRLVFDPKHKTLALIKDGRVIGGICFRMFPSQGFTEIVFCAVTSNEQVKGYGTHLMNHLKEYHIKHDILNFLTYADEYAIGYFKKQGFSKEIKIPKTKYVGYIKDYEGATLMGCELNPRIPYTE
notes: p300/CBP associated factor (PCAF, KAT2B), human, HAT domain, residues 493-658; also called LV512DD
B4: PCAF HAT domain (amino acids 493-658) L512D/V516D/F539A (domain or fragment, human, UniProt Q92831 493-658, looked up)
chain: VIEFHVVGNSLNQKPNKKIDMWLDGLQNVFSHQLPRMPKEYITRLVADPKHKTLALIKDGRVIGGICFRMFPSQGFTEIVFCAVTSNEQVKGYGTHLMNHLKEYHIKHDILNFLTYADEYAIGYFKKQGFSKEIKIPKTKYVGYIKDYEGATLMGCELNPRIPYTE
notes: p300/CBP associated factor (PCAF, KAT2B), human, HAT domain, residues 493-658; also called LVF512DDA

Target: the molecule itself
Assay: cross-linking; 1 mg/ml protein in 50 mM HEPES pH7.5, 50 mM sodium sulfate; DSS at 5X molar concentration, 1 h at room temperature; SDS-PAGE, coomassie blue

Binding result, binds:
B1
B2
B3
B4
